This note sets out measurements from US20240269285A1 (University of Texas, published 2024).

The assay deals with T1, human CD70 (human, UniProt P32970 1-193).
T1 construct: whole, on cells; also called CD70 antigen; CD27 ligand
T1 sequence (looked up): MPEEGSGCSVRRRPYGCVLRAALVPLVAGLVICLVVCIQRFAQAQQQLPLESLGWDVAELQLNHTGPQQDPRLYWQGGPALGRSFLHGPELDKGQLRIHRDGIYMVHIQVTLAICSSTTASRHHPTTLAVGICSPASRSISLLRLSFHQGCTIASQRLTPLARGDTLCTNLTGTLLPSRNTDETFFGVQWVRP
Put plainly: flow cytometry on CBNK cells, Raji WT cells and Raji CD70 KO cells. Here is the method: Flow cytometry assay was conducted to detect the binding of various ml, m5, m6, m7, m14, m15, m16, m19, and m22 clones CD70 antibody clones to CD70 antigen expressed in various cells.
In general terms: In flow cytometry, cells or beads pass a laser one at a time.

B1: m14 monoclonal anti-human CD70 antibody clone (antibody, V domains shown)
VH: EVQLQQSGAELVKPGASVKLSCTASGFNIKDSYMHWVKQRPEQGLEWIGRIDPANANPKYDPKFQGKATITTDTSSNTAYLQLSSLTSEDTAVYYCARDYGGYFDVWGAGTTVTVSS
VL: DIQMTQSSSYLSVSLGGRVTITCKASDHINNWLAWYQQKPGNAPRLLISGATSLETGVPSRFSGSGSGKDYTLSITSLQTEDVATYYCQQYWSTPWTFGGGTKLEIK
notes: Purified monoclonal antibody; Detected with a goat anti-mouse IgG-HRP secondary antibody; also called m14-CD70
Regarding B1, the binding result is “binds”.

B2: m7 monoclonal anti-human CD70 antibody clone (antibody, V domains shown)
VH: QVQLKQSGPGLVQPSQSLSITCTVSGFSLTSYGVHWVRQSPGKGLEWLGVIWSGGSTDYNAAFISRLSISKDNSKSQVFFKMNSLQANDTAIYYCATYYRYDGWFAYWGQGTLVTVSA
VL: DIVLTQSPASLAVSLGQRATISCRASKSVSTSGYSYMHWYQQKPGQPPKLLIYLASNLESGVPARFSGSGSGTDFTLNIHPVEEEDAATYSCQHSRELPWTFGGGTKLEIK
notes: Purified monoclonal antibody; Detected with a goat anti-mouse IgG-HRP secondary antibody; also called m7-CD70
For B2, the binding result is “binds”.
